# From patent CN107417789A (INST RES BIOMEDICINE, dated 2017)
# Molecular target: T1, X-31 (H3N2) 菠萝蛋白酶释放的HA (BHA) (influenza A virus X-31 (H3N2), UniProt P03437 17-344; P03437 346-520)
# T1 construct: domain: 菠萝蛋白酶释放的HA (BHA)
# Test: complex formation and size exclusion chromatography
binder,measurement,value
"FI6变体3 Fab片段 (Fab, V domains shown) VH: QVQLVESGGGVVQPGRSLRLSCAASGFTFSTYAMHWVRQAPGKGLEWVAVISYDANYKYYADSVKGRFTISRDNSKNTLYLQMNSLRAEDTAVYYCAKDSQLRSLLYFEWLSQGYFDYWGQGTLVTVSS VL: not shown",binding result,binds
